Results reported in patent US20240092934A1 (FAMEWAVE, published 2024).
Changes are numbered by the printed parent chain. Names may count otherwise.

T1: recombinant human CEACAM-1 (R&D Systems cat. no. 2244-CM-050) (human, UniProt P13688 35-428)
T1 construct: Coated on the ELISA plate at 0.5 ug/ml
T1 sequence (looked up): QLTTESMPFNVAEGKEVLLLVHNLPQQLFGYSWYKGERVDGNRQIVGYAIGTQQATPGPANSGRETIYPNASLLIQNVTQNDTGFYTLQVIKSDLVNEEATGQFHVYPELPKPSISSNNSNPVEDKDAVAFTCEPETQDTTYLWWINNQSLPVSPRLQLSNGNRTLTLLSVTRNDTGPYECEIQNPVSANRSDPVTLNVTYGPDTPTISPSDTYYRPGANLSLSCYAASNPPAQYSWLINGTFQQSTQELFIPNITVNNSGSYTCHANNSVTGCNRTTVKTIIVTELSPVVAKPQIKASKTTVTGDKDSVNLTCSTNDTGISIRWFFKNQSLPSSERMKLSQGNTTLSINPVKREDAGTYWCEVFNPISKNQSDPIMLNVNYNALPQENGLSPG

B1: humanized anti-CEACAM-1 variant VH4/VK2, IgG1 (antibody, V domains shown)
VH: QVQLVQSGAEVKKPGASVKVSCKASGYAFTNNLIEWVRQAPGQGLEWIGVINPGSGDTNYNEKFKGRATLTADKSISTAYMELSRLRSDDTAVYYCARGDYYGGFAVDYWGQGTTVTVSS
VL: DIQMTQSPSSLSASVGDRVTITCRTSQDIGNYLNWYQQKPGKAVKLLIYYTSRLHSGVPSRFSGSGSGTDYTLTISSLQPEDIATYFCQQGKSLPRTFGGGTKVEIK
notes: Tested as human IgG1 / kappa antibody; only the variable regions are tied to this variant
B2: humanized anti-CEACAM-1 variant VH4/VK2, IgG4 (S241P) (antibody, V domains shown)
VH: B1 VH
VL: B1 VL
notes: Tested as human IgG4 (S241P) / kappa antibody; only the variable regions are tied to this variant
B3: humanized anti-CEACAM-1 variant VH4/VK3, IgG1 (antibody, V domains shown)
VH: B1 VH
VL: B1 VL with L73F
notes: as for B1
B4: humanized anti-CEACAM-1 variant VH4/VK3, IgG4 (S241P) (antibody, V domains shown)
VH: B1 VH
VL: B1 VL with L73F
notes: as for B2
B5: humanized anti-CEACAM-1 variant VH5/VK1, IgG1 (antibody, V domains shown)
VH: B1 VH with A68V, L70M
VL: B1 VL with P80Q
notes: as for B1
B6: humanized anti-CEACAM-1 variant VH5/VK1, IgG4 (S241P) (antibody, V domains shown)
VH: B1 VH with A68V, L70M
VL: B1 VL with P80Q
notes: as for B2
B7: humanized anti-CEACAM-1 variant VH5/VK2, IgG1 (antibody, V domains shown)
VH: B1 VH with A68V, L70M
VL: B1 VL
notes: as for B1
B8: humanized anti-CEACAM-1 variant VH5/VK2, IgG4 (S241P) (antibody, V domains shown)
VH: B1 VH with A68V, L70M
VL: B1 VL
notes: as for B2
B9: humanized anti-CEACAM-1 variant VH5/VK3, IgG1 (antibody, V domains shown)
VH: B1 VH with A68V, L70M
VL: B1 VL with L73F
notes: as for B1
B10: humanized anti-CEACAM-1 variant VH5/VK3, IgG4 (S241P) (antibody, V domains shown)
VH: B1 VH with A68V, L70M
VL: B1 VL with L73F
notes: as for B2
B11: humanized anti-CEACAM-1 variant VH3/VK2, IgG4 (S241P) (antibody, V domains shown)
VH: B1 VH with S77N
VL: B1 VL
notes: as for B2

Biological target: T1, recombinant human CEACAM-1 (R&D Systems …)
Experiment: competition ELISA on coated recombinant human CEACAM-1; competitor biotinylated chimeric CM-10 IgG1
Description: The binding of the biotinylated antibody was detected with streptavidin-HRP (Sigma cat. no. S5512) and TMB substrate (Invitrogen cat. no. 00-2023). The reaction was stopped with 3M HC1, absorbance read at 450 nm on a Dynex Technologies MRX TC II plate reader and the binding curves plotted.

B1 and B2 are within 1.5-fold of each other in IC50: 0.78 mg/L for the first, 0.69 mg/L for the second.

Going from B3 to B4, the IC50 falls from 0.99 mg/L to 0.63 mg/L (1.6-fold).

B5 and B6 are within 1.5-fold of each other in IC50: 0.77 mg/L for the first, 0.74 mg/L for the second.

B7 and B8 are within 1.5-fold of each other in IC50: 0.72 mg/L for the first, 0.7 mg/L for the second.

B9 and B10 are within 1.5-fold of each other in IC50: 0.74 mg/L for the first, 0.7 mg/L for the second.

B11 gave an IC50 of 0.77 mg/L.

First: B1
Second: B2
The “IC50 normalized to CM-10” value of the first is higher: 1.24 ratio to IC50 of chimeric CM-10 for the first, 1.17 ratio to IC50 of chimeric CM-10 for the second.

First: B3
Second: B4
The “IC50 normalized to CM-10” value of the first is higher: 1.56 ratio to IC50 of chimeric CM-10 for the first, 1.06 ratio to IC50 of chimeric CM-10 for the second.

First: B5
Second: B6
The “IC50 normalized to CM-10” value of the first is lower: 1.17 ratio to IC50 of chimeric CM-10 for the first, 1.23 ratio to IC50 of chimeric CM-10 for the second.

First: B7
Second: B8
The “IC50 normalized to CM-10” value of the first is lower: 1.09 ratio to IC50 of chimeric CM-10 for the first, 1.16 ratio to IC50 of chimeric CM-10 for the second.

Compared with B9, B10 is higher in “IC50 normalized to CM-10” value: 1.12 ratio to IC50 of chimeric CM-10 for the first, 1.17 ratio to IC50 of chimeric CM-10 for the second.

With B11 the “IC50 normalized to CM-10” value was 1.26 ratio to IC50 of chimeric CM-10.
